The target of series [1] is (Gt)RemA, RemA from Geobacillus thermodenitrificans, wild type, with N-terminal His-tag (Geobacillus thermodenitrificans NG-80). Put plainly: SEC-MALS; analytical SEC-MALS of the two major SEC peaks; (Gt)RemA at 500 µM (Fig. 1b); R18W variant in Supplementary Fig. 1d. (In general: In gel filtration, larger molecules generally elute earlier.)
The target is the same in series [2]. As to the kind of experiment: crystal structure; sitting-drop crystallisation at 20 °C; X-ray data at ESRF; wild type by Se-SAD, variants by molecular replacement.
Series [3] has the same target. Described as above. The source holds these as a separate data set.
Series [4] addresses (Gt)RemA-R51A/R53A (Geobacillus thermodenitrificans NG-80). The description is as above.
The target in series [5] is (His)-GB1-tagged (Gt)RemA (Geobacillus thermodenitrificans NG-80). Put plainly: SEC; SEC analysis of the (His)-GB1 constructs of (Bs)RemA and (Gt)RemA (Supplementary Figs. 2a, b).
The target of series [6] is T1, (Gt)RemA wild type, His-tagged (Geobacillus thermodenitrificans NG-80) (UniProt A4IM41).
T1 sequence: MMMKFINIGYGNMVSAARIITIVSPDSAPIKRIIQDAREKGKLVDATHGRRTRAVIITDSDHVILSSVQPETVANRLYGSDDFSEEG
Put plainly: EMSA. Conditions: 20 mM HEPES pH 8.0, 1000 mM NaCl, 20 mM MgCl2, 20 mM KCl, 0.3 ug/ml BSA, 25 ug/ml herring sperm DNA, 10% glycerol, 0.25 mg/ml Orange-G; 1 pmol DNA in 14.5 ul …. On the technique in general: Mobility shift assays separate free from complexed probe on a gel.

Series [7] concerns the target T2, (Gt)RemA wild type, tag-free (Geobacillus thermodenitrificans NG-80) (UniProt A4IM41).
T2 sequence: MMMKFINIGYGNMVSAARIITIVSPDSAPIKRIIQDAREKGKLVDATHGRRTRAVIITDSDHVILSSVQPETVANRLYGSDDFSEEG
Put plainly: EMSA. The note with it: 20 mM HEPES pH 8.0, 1000 mM NaCl, 20 mM MgCl2, 20 mM KCl, 0.3 ug/ml BSA, 25 ug/ml herring sperm DNA, 10% glycerol, 0.25 mg/ml Orange-G; 1 pmol DNA in 14.5 ul ….

Series [8] deals with T3, (Gt)RemA-R18W R18W (Geobacillus thermodenitrificans NG-80) (UniProt A4IM41).
T3 sequence: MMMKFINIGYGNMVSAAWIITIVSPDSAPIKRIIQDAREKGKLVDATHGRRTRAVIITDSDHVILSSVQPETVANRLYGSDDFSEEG
Put plainly: EMSA. Conditions: 20 mM HEPES pH 8.0, 1000 mM NaCl, 20 mM MgCl2, 20 mM KCl, 0.3 ug/ml BSA, 25 ug/ml herring sperm DNA, 10% glycerol, 0.25 mg/ml Orange-G; 1 pmol DNA in 14.5 ul ….

Series [9] has as its target T4, (Gt)RemA-R50A R50A (Geobacillus thermodenitrificans NG-80) (UniProt A4IM41).
T4 sequence: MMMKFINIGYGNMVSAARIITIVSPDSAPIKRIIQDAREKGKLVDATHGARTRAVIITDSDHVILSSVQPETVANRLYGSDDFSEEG
Put plainly: EMSA. The note with it: 20 mM HEPES pH 8.0, 1000 mM NaCl, 20 mM MgCl2, 20 mM KCl, 0.3 ug/ml BSA, 25 ug/ml herring sperm DNA, 10% glycerol, 0.25 mg/ml Orange-G; 1 pmol DNA in 14.5 ul ….

Series [10] concerns the target T5, (Gt)RemA-R51A R51A (Geobacillus thermodenitrificans NG-80) (UniProt A4IM41).
T5 sequence: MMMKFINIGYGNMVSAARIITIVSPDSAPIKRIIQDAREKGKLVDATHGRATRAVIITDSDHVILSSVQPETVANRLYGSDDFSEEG
As to the kind of experiment: EMSA. The note with it: 20 mM HEPES pH 8.0, 1000 mM NaCl, 20 mM MgCl2, 20 mM KCl, 0.3 ug/ml BSA, 25 ug/ml herring sperm DNA, 10% glycerol, 0.25 mg/ml Orange-G; 1 pmol DNA in 14.5 ul ….

Series [11] addresses (Gt)RemA-R18W (Geobacillus thermodenitrificans NG-80). Put plainly: SEC-MALS; analytical SEC-MALS of the two major SEC peaks; (Gt)RemA at 500 µM (Fig. 1b); R18W variant in Supplementary Fig. 1d.
Series [12] has the same target. As to the kind of experiment: crystal structure; sitting-drop crystallisation at 20 °C; X-ray data at ESRF; wild type by Se-SAD, variants by molecular replacement.
Series [13] concerns the molecule itself. Put plainly: SEC; SEC analysis of the (His)-GB1 constructs of (Bs)RemA and (Gt)RemA (Supplementary Figs. 2a, b).

For orientation: stoichiometry N means a count of units in the complex or per binding partner.

“And” between values parts separate entries of the source, which are not always exact repeats. Equal values may be shown once.

On to “(Gt)RemA, RemA from Geobacillus thermodenitrificans, wild type, with N-terminal His-tag (natural protein)”, for which the stoichiometry N was 16 and 8 in series [1]; 16 in series [2]; 8 in [3].
For the molecule (Gt)RemA-R51A/R53A (natural protein), the stoichiometry N in series [4] is 8.
Molecule “(His)-GB1-tagged (Gt)RemA (natural protein)” displayed a stoichiometry N in [5] of 8.
In the case of “CTCCTCTATTCCTGTCGTTATTTCGTTCATTATAAGGAATTTTTCGTTCTTTATAAAATTTAAAATAATAAGGGAAGTGCAGTAAATTAGAGGAAAATCATGATTTTGTTCTCCAAAGAGAACTTATTGGCTTATTTTGCAATTTTTAAATAATAACGTTTTCTTTTATAATCCAATCATTAACAGAAAGGGGCGCGGGAAGCCAGCCGCGGGAAGGCTGAAGGCTATGAATACATGAATGAGAATATGAGTTTCAAAGAATTATATGCGATTGTCAGACACAGATTCG (double strand) [PepsA 289 bp fragment]”, the binding entry in series [6] is “binds”; in series [7], “binds”; in series [8], “binds”; in series [9], “no binding”; in series [10], “no binding”.
Consider (Gt)RemA-R18W (natural protein), for which the stoichiometry N in [11] is 14 and 7; in series [12] it was 7.

B1: (His)-GB1-tagged (Bs)RemA (natural protein, B. subtilis strain 3610, UniProt Q7WY72 1-89, looked up)
chain: MTIKLINIGFGNIISANRMISIVSPESAPIKRMIQDARDRGMLIDATYGRRTRAVVVMDSDHIILSAVQPETVAHRLSVKEEIMDEGQG
notes: RemA of Bacillus subtilis strain 3610; MW 9.6 kDa; A TEV cleavage site stands between the solubility tag and RemA; removal of the tag led to precipitation; also called His-GB1-(Bs)RemA; (Bs)RemA (His)-GB1 construct; not shown: His, N-terminal, kept
Take B1: the “stoichiometry N” value in [13] turned out to be 8.

Values taken from publication PMC8481266, “Structural and functional characterization of the bacterial biofilm activator RemA” (Nature Communications, 2021).
